Assay results reported in the supplement of paper PMC10567573.

B1: MIA2 (parent)
chain: DMVSNIELPTRIHEEVYFEPSSSK
B2: KLHL12 (parent)
chain: REESLPNLLQYVRMPLLTPRYITD

Variants of: B1
Assay: protein stability index of a GFP-peptide fusion (GPS, HEK-293T) (PSI 1-6); higher = more stable
Conditions: c terminus: a fixed tail appended
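Note: lentivirally expressed fusions sorted by FACS into six bins by GFP to DsRed ratio, PSI derived from sequencing read proportions per bin multiplied by bin number.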

Protein stability index: each site, then its substitutions
N5: D 4.56 | A 4.14 | C 4.04 | E 4.18
S4: P 4.34 | H 4.29 | K 4.07 | L 3.12 | M 3.51 | Q 3.52 | F 2.35 | D 3.98 | I 1.93 | T 3.73 | R 3.97 | N 4.03 | E 4.48 | W 2.6 | G 3.82 | Y 4.01 | V 3.33 | A 3.97 | C 3.44
V3: R 4.56 | F 3.73 | K 4.02 | G 4.23 | I 4.26 | Y 3.87 | P 4.1 | S 4.26 | H 3.56 | L 3.53 | M 4.09 | Q 4.02 | A 3.79 | D 3.89 | N 3.86 | C 3.97 | W 3.15 | E 4.65 | T 3.04
D1: Q 3.95 | K 3.93 | Y 3.42 | N 4.15 | E 3.16 | A 3.62 | I 2.36 | L 3.11 | M 2.73 | S 3.5 | V 1.98 | G 3.65 | W 2.63 | R 4.25 | F 2.87 | C 2.86 | T 3.63 | P 4.09 | H 4.67
M2: H 4.48 | T 5.12 | D 5.43 | L 3.7 | P 5.15 | Y 3.72 | K 3.55 | E 5.23 | Q 5.01 | W 2.8 | I 3.62 | F 3.28 | R 4.18 | G 4.78 | V 3.64 | C 4.99 | N 5.1 | S 5.02 | A 5.19

Variants of: B2
Assay: as above
Conditions: c terminus: a fixed tail appended

Protein stability index: each site, then its substitutions
D24: A 1.84 | Q 2.5 | N 2.35 | L 1.71 | H 2.06 | S 2.01 | E 2.26 | T 2.17 | K 2.64 | Y 2.22 | F 2.04 | G 2.28 | W 2.11 | V 1.57 | M 1.6 | P 2.04 | R 2.75 | C 1.81 | I 3.11
T23: N 2.85 | C 2.03 | S 2.66 | D 3.12 | K 3.35 | R 3.83 | Q 2.65 | M 2.61 | L 2.02 | E 2.81 | H 2.58 | V 2.04 | A 2.9 | Y 2.09 | I 2.12 | P 2.57 | G 2.48 | F 1.62 | W 1.7
R20: L 2.55 | N 2.78 | V 1.92 | Y 1.67 | M 1.97 | S 2.72 | W 1.22 | P 2.21 | T 2.15 | K 3.48 | Q 2.54
I22: M 1.94 | R 3.84 | H 2.86 | N 2.71 | K 3.71 | Q 2.54 | L 2.4 | T 3.39 | C 2.55 | D 3.27 | G 2.4 | W 1.93 | F 1.93 | A 2.76 | Y 2.34 | S 2.72 | E 3.22 | V 2.18 | P 3.71
Y21: G 3.4 | S 3.37 | V 2.72 | H 3.08 | T 3.26 | F 2.22 | E 3.17 | P 3.15 | L 2.62 | A 3.59 | N 3.25 | M 2.97 | K 3.93 | W 1.79 | D 3.69 | Q 3.85 | I 2.84 | R 3.24 | C 2.95
